According to patent publication US20130071431A1, “Method for Preserving Polypeptides Using A Sugar and Polyethyleneimine” (Stabilitech Ltd., priority 2008, published 2013):

Legend:
[1] = HRP activity assay (OPD/H2O2) after freeze-drying and heat-freeze cycles; assay type: biochemical
Method: Type IV horse radish peroxidase (HRP, Sigma-Aldrich) was diluted to 1 μg/ml in:
The PEI was obtained from Sigma (P3143, Mn 60,000). The PEI concentration was based on Mn. 10×100 μl volumes of each of the above solutions were prepared in 5 ml freeze-drying vials. Five replicates of each solution were freeze-dried from minus 32° C. over a 3 day cycle on a VirTis Advantage laboratory freeze-dryer using the protocol described in Example 6.
One vial from each solution of the liquid and dried samples was placed at 4° C. while the rest were frozen to −20° C. Samples from each of the liquid and dry solutions were subjected to 2, 4, and 6 heat-freeze cycles by removing them from the −20° C. freezer and placing them in an incubator set at 37° C. for 4 hours before replacing them in the freezer for 20 hrs 2, 4 and 6 times. 1 vial of each was retained at −20° C. as a control.
When the cycling was completed all the samples, including the −20° C. and 4° C. maintained non-cycled controls were allowed to equilibrate to room temperature. The freeze-dried samples were then reconstituted with 100 μl/vial of deionised water at room temperature.
Triplicate 10 μl samples were removed from each vial into wells of a flat bottomed ELISA plate (Nunc Maxisorb). To each well was then added 50 ul of a chromogen/substrate solution containing 0.4 mg/ml orthophenylene diamine (OPD) and 0.4 ul/ml 30% hydrogen peroxide (H2O2). Colour was allowed to develop before the reaction was stopped by the addition of 50 μl/well of 1M sulphuric acid (H2SO4). Absorbance was measured at 490 nm on a BioTek Synergy HT spectrophotometer and plotted as optical density (OD).

[2] = Beta-galactosidase assay with x-gal (Example 11); assay type: biochemical; conditions: 1M Suc, 100 mM Raf
Method: Excipients mixtures containing β-galactosidase were prepared according to the table below and vortexed. 10 units of β-galactosidase were added to each vial. 200 μl of the vortexed mixture was placed in each appropriately labelled 5 ml glass vials. PEI was obtained from Sigma (P3143, Mn 60,000).
The condenser chamber was −70° C. However there was no shelf control on the freeze-drying unit.
Following freeze-drying, vials were reconstituted in 1 ml PBS. 100 μl of the resulting solution from each vial was added in duplicate (giving a total of 6 readings per excipient type) to each well of a flat bottom 96 well plate. The substrate x-gal was added as according to the manufacturer's instructions. Briefly, a stock solution of 20 mg/ml was made in DMSO and used at a 1 mg/ml working concentration. 100 μl was added to each well and the solution allowed to develop over 10 minutes. Following development, absorbance was measured at 630 nm on a synergy HT microplate. Background from blank wells was then subtracted from all the readings and results assessed using Prism Graphpad.

[3] = tested on: HL60 cells (ERK1/2 phosphorylation); test: HL60 cell stimulation assay, immunoblot of phosphorylated and total ERK1/2; assay type: cell-based
Method: A lyophilised sample of G-CSF was reconstituted to a concentration of 10 μg/ml. 160 μl of sucrose (1.82M) and 40 μl of raffinose (0.75M) were mixed with 50 μl of PEI (at a concentration of 150 nM based on Mn) to complete the preservation mixture. 50 μl of the reconstituted G-CSF solution was added and mixed well.
100 μl aliquots of the final mixture was distributed into separate vials, and frozen or freeze-dried. Lyophilisation was carried out overnight as described in Example 1. […] Following incubation, the samples were reconstituted in RPMI prior to use.
HL60 cells (shown to be mycoplasma free) were maintained in phenol red containing RPMI 1640 supplemented with 10% foetal bovine serum (FBS) and 2 mM glutamine. Cells were passaged weekly and medium was replenished every 2-3 days.
For stimulation assays HL60 cells were harvested and transferred to serum free medium at a density of 5×10^5 perwell of a 6 well plate. After 24 hours cells were stimulated for 5 minutes with the treatments shown in FIG. 2 (100 ng/ml G-CSF) and as indicated below:
Whole cell extracts were resolved by SDS-PAGE and then transferred to nylon membranes, which were immunoprobed with antibodies against phosphorylated and total ERK1/2.
Cell suspensions were harvested (1000 rpm for 5 minutes) and washed with ice-cold PBS. Cell pellets were then lysed in extraction buffer (1% (v/v) Triton X100, […], pH 7.4, 5 mM EDTA, 50 mM NaCl, 50 mM sodium fluoride 2 mM Na3VO4 and 1 tablet of Complete™ inhibitor mix (Boehringer) per 10 ml of buffer) and homogenised by passage through a 26-gauge needle 6 times. The lysate was incubated on ice for 10 minutes then clarified by centrifugation (14,000 rpm for 10 minutes at 4° C.). The protein concentration was then quantified using the […] (Biorad, Inc.). Equal amounts of protein ([…]) were resolved by SDS-PAGE (10% gels) and then subjected to immunoblot analysis. Antigen-antibody interactions were detected with ECL (Pierce, UK).

[4] = tested on: HL-60 cells (phospho-ERK1/ERK2); test: Cell-based ELISA of phosphorylated ERK1/ERK2 in HL-60 cells
Method: Sucrose solution was prepared by adding 32 g sucrose powder to 32 ml PBS in a 50 ml falcon tube to give a final volume of 52 ml correlating to a final concentration of 61.54%. The solution was gently heated in a microwave to assist initial solvation but thereafter stored at 4° C.
Raffinose solution was prepared by adding 4 g raffinose to 8 ml PBS in a 50 ml falcon tube to give a final volume of 10.2 ml corresponding to a final concentration of 39.2%. The solution was heated in a microwave to allow complete solvation.
To produce the final sugar mix, the sucrose and raffinose solutions described above were mixed in a 4:1 ratio. In practise, 32 ml sucrose solution was mixed with 8 ml raffinose solution. Once composed, sugar mix was stored at 4° C. and suffered no precipitation.
6 g of PEI (50% w/v) was added to 500 ml PBS to make 6 mg/ml then diluted 1 in 10 to make 600 ug/ml. 600 μg/ml was then diluted to make 100 μg/ml solution of PEI. Serial 1 in 10 dilutions were prepared in PBS to a concentration of 0.01 μg/ml. For final concentrations of PEI refer to Table 2 below. Concentrations were calculated based on Mn.
10 μg of 98% purified recombinant human G-CSF was reconstituted in 1 ml of PBS and diluted to 0.2 ng/ml in PBS (1 in 50,000 dilution), with a starting concentration 10 μg/ml. The G-CSF was aliquoted in 15 μl in Eppendorf tubes and stored at −20° C. for further use.
First dilution: 10 μl of G-CSF at 10 μg/ml was added to 990 μl of PBS (1 in 100 dilutions). Second dilution: 10 μl of 1 in 100 dilutions of G-CSF was added to 4.99 ml of PBS (1 in 500 dilutions). For final concentrations of G-CSF refer to Table 2.
Excipients were prepared according to Table 2. The final concentration of G-CSF was 0.2 ng/ml per vial. The excipients were vortexed to mix and 100 μl placed in each appropriately labelled 5 ml glass vial. Samples were freeze dried by the VirTis Advantage freeze dryer for approximately 3 days.
Samples were prepared as 100 μl aliquots. Freeze-dried samples were resuspended in 100 μl of water.
The ELISA assay method described below was followed as general assay procedure of cell base assay's kit (R&D Systems).
HL-60 cells were maintained in phenol red containing RPMI 1640 supplemented with 20% foetal bovine serum (FBS), Glutamine and Penicillin Streptomycin. HL-60 cells were passaged weekly and medium was replenished every 2-3 days.
The HL-60 (passage three) were transferred to a centrifuge tube and spun down at 1300 rpm, for 5 minutes at 4° C. The supernatant was poured off into a T-75 flask. The pellet was resuspended in 10 ml cold media.
200 μl of cell suspension was transferred into an Eppendorf tube by using a 5 ml pipette. 100 μl of cell suspension was added to 100 μl of trypan blue into another Eppendorf tube and mixed. […]

[5] = native (untreated) G-CSF, 100 ng/ml, 5 minutes, serum starved HL60 cells

## HRP: Type IV horse radish peroxidase (HRP, Sigma-Aldrich)
[1]; 1M Suc/100 mM Raf with or without 16.6 nM PEI versus PBS alone, all treatments and storage conditions
  HRP activity (OD 490 nm): better maintained
[1]; excipient-treated samples, 6 heat/freeze cycles (37° C. 4 hours / −20° C. 20 hrs)
  HRP activity after heat/freeze cycles: still maintained more HRP activity than unchallenged samples in PBS
[1]; sugars, especially in combination with PEI, at the initial freeze-drying stage
  loss of HRP activity: significantly reduces loss of HRP activity

## β-galactosidase: β-galactosidase enzyme (Sigma)
[2]; 13.3 μM PEI, compared to sucrose/raffinose alone
  β-galactosidase activity following freeze-drying: further enhanced
[2]; no PEI, compared to PBS
  β-galactosidase activity following freeze-drying: high in sucrose/raffinose excipients compared to PBS

B1: G-CSF: human recombinant G-CSF (Sigma in Example 2; MBL JM-4094-10 in Examples 14 and 16) (protein, UniProt P09919 31-207, looked up)
Granulocyte …: TPLGPASSLPQSFLLKCLEQVRKIQGDGAALQEKLVSECATYKLCHPEELVLLGHSLGIPWAPLSSCPSQALQLAGCLSQLHSGLFLYQGLLQALEGISPELGPTLDTLQLDVADFATTIWQQMEELGMAPALQPTQGAMPAFASAFQRRAGGVLVASHLQSFLEVSYRVLRHLAQP
[3]; G-CSF mixed with excipient and freeze-dried (FIG. 2C)
  potency (ERK1/2 phosphorylation) compared to untreated G-CSF: maintain the potency
[3]; G-CSF mixed with excipient then heat treated 37° C. for 72 hours, not freeze-dried (FIG. 2B)
  activity (ERK1/2 phosphorylation) compared to untreated G-CSF: marked loss of activity
[3]; G-CSF mixed with excipient, freeze-dried and heat treated 37° C. for 72 hours (FIG. 2D)
  protection against heat inactivation (ERK1/2 phosphorylation): protect G-CSF against heat inactivation
[3]; [5]
  ERK1/2 phosphorylation: enhance phosphorylation
  total ERK1/2 levels: without any effect
[4]; 1M Suc, 0.1M Raf with 1.6 μM, 0.16 μM or 0.016 μM PEI, freeze dried, heat treated at 56° C. (15 min, 1 h, 2 h, O/N)
  level of phosphorylated ERK1/ERK2: higher level of phosphorylated ERK1/ERK2
[4]; 1M Suc, 0.1M Raf with 1.6 μM, 0.16 μM or 0.016 μM PEI, freeze dried, 37° C. or 56° C. for 1 week
  protection of G-CSF (ERK 1/2 phosphorylation): protects and stabilises G-CSF
[4]; freeze-dried with high level of PEI, heat treated at 56° C.
  efficacy (phosphorylated ERK1/ERK2): greater efficacy
[4]; sugars with PEI final concentration of 1.6 μM, freeze dried, 37° C. and 56° C. for 1 week
  protection of G-CSF (ERK 1/2 phosphorylation): highest level of protection
